Results as given in patent publication CN101875694A.

Molecular target: 重组人肿瘤坏死因子TNFα (Recombinant Human TNF-α, Peprotech Asia, Cat 300-01A) (human) (UniProt P01375)
Assay: cell-based or functional assay

Sequence of UniProt P01375 (P01375 77-233 limits assumed): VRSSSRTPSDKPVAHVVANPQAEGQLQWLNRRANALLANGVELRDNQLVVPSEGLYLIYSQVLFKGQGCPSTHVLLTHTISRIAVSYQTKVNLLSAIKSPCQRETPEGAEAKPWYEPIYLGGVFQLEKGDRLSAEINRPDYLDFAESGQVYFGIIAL

小鼠存活率, C57BL/6 given 1μg rhTNFα and D-galactosamine, 5μg antibody: 0%
Substance: 野生型全长的D2E7抗体 (full-length wild-type D2E7) (antibody)
